Molecular target: integrin alpha V beta 5 (human) (UniProt P06756)
Assay: cell-based or functional assay

UniProt P06756, sequence (P06756 31-1048, chain 1 of 2): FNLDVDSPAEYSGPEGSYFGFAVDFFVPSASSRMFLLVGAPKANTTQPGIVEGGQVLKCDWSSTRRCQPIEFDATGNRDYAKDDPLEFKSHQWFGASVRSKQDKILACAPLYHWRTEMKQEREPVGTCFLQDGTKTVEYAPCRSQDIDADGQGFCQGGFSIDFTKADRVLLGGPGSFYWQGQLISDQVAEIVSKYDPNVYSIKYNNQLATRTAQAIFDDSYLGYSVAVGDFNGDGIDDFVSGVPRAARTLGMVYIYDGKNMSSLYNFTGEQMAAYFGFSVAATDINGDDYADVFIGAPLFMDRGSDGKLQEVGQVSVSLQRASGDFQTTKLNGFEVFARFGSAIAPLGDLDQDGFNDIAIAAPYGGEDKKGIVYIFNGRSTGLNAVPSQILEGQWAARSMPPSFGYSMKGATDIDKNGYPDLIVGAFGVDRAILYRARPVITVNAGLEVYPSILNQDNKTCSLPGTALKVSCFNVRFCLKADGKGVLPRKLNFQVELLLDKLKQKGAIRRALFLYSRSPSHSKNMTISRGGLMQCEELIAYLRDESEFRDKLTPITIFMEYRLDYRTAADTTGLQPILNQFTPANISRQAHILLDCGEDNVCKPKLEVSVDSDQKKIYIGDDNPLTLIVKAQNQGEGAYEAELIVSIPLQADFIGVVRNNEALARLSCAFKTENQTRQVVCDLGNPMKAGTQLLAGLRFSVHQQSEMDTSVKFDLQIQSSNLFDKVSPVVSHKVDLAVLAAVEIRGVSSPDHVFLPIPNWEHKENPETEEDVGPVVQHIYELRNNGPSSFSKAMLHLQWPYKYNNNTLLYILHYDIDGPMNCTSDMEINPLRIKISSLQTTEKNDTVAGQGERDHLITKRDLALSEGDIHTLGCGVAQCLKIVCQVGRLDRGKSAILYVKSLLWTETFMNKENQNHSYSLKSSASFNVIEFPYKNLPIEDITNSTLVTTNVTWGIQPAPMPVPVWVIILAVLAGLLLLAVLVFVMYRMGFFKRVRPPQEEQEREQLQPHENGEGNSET
UniProt P06756, sequence (P18084 24-799, chain 2 of 2, further chain): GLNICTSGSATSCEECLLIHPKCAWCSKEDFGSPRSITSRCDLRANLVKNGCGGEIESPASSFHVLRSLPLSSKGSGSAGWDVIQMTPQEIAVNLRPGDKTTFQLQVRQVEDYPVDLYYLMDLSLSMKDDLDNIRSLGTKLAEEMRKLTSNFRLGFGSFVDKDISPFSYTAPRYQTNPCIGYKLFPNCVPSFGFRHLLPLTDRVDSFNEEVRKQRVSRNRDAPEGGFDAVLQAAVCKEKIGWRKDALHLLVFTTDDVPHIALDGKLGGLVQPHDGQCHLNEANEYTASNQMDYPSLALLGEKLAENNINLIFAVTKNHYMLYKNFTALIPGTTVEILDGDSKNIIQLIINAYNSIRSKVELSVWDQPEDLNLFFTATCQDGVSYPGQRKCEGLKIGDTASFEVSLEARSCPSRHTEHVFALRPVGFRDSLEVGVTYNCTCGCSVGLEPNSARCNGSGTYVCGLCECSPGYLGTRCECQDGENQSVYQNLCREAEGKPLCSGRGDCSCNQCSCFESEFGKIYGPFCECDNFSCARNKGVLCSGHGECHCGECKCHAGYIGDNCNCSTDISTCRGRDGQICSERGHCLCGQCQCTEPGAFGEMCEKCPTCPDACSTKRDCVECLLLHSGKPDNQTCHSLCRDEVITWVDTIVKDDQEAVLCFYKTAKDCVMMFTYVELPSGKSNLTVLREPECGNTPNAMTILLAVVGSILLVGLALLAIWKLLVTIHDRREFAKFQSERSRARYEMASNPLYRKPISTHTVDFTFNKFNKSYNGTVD

ability to induce the migration of neural stem cells (Boyden chamber assay, HB1.F3 cells, against cells not treated with periostin): 100%
Substance: periostin (from UniProt Q15063 22-779) (ligand)
